B1: NGEP peptide P143 (peptide)
peptide: FLDNIRAAGL
notes: Synthetic peptide, purity >95%; also called P143 (5)
B2: NGEP peptide P170 (L) (peptide)
peptide: ALLSASWAV
notes: Synthetic peptide, purity >95%; positions counted on the NGEP long form (L)
B3: NGEP peptide P703 (L) (peptide)
peptide: GLFDEYLEMV
notes: Synthetic peptide, purity >95%; positions counted on the NGEP long form (L); also called NGEP-P703
B4: NGEP peptide P356 (L) (peptide)
peptide: WLLPAAVVGT
notes: as for B2
B5: NGEP peptide P113 (S) (peptide)
peptide: LVWEEDLKL
notes: Synthetic peptide, purity >95%; positions counted on the NGEP short form (S)
B6: NGEP peptide P258 (L) (peptide)
peptide: ILFEILAKT
notes: as for B2
B7: NGEP peptide P846 (L) (peptide)
peptide: LLAIRLWAV
notes: as for B2
B8: NGEP peptide P10 (S) (peptide)
peptide: GLGGPPLPTL
notes: as for B5
B9: MUC-1 (P1240) peptide (peptide)
peptide: SLSYTNPAV
notes: Synthetic control peptide, purity >95%; also called positive control peptide
B10: NGEP peptide P215 (L) (peptide)
peptide: VLLEVVPDV
notes: as for B2
B11: NGEP peptide P855 (L) (peptide)
peptide: IVFEHVVFSV
notes: as for B2

Target: T1, HLA-A2 molecules on T2 cells (human)
T1 construct: whole, on cells; MHC class I molecule on the surface of T2 cells
Assay: T2 cell-binding assay, flow cytometry of HLA-A2 on T2 cells, peptide 25 µg/mL
Description: The T2 binding values are expressed in mean fluorescence intensity. The values in parentheses are fold increases as compared with the negative control (CAP-7 peptide).

Question: Which “T2 Binding (mean fluorescence intensity)” value does the source give for B1 here?
Answer: The value was 203 MFI.

Question: What about the “fold increase compared with the negative control (CAP-7 peptide)” value (shortened to “fold increase”) of the same binder?
Answer: Its value is 2.3 fold.

Question: Which “T2 Binding (mean fluorescence intensity)” value does the source give for B2 here?
Answer: The value was 185 MFI.

Question: And the “fold increase” value?
Answer: Its value is 2.1 fold.

Question: B3 was tested. Which “T2 Binding (mean fluorescence intensity)” value did it give?
Answer: Its value is 565 MFI.

Question: And the “fold increase” value?
Answer: Its value is 6.4 fold.

Question: What does the source list for B4?
Answer: T2 Binding (mean fluorescence intensity): 354 MFI; fold increase compared with the negative control (CAP-7 peptide): 4 fold

Question: For B5, which “T2 Binding (mean fluorescence intensity)” value is on record?
Answer: Its value is 367 MFI.

Question: What about the “fold increase” value of the same binder?
Answer: The value was 4.1 fold.

Question: Which “T2 Binding (mean fluorescence intensity)” value does the source give for B6 here?
Answer: The value was 280 MFI.

Question: What about the “fold increase” value of the same binder?
Answer: The value was 3.1 fold.

Question: For B7, which “T2 Binding (mean fluorescence intensity)” value is on record?
Answer: The value was 126 MFI.

Question: And the “fold increase” value?
Answer: The value was 1.4 fold.

Question: Which results are given for B8?
Answer: T2 Binding (mean fluorescence intensity): 212 MFI; fold increase compared with the negative control (CAP-7 peptide): 2.4 fold

Question: What does the source list for B9?
Answer: T2 Binding (mean fluorescence intensity): 452 MFI; fold increase compared with the negative control (CAP-7 peptide): 5.1 fold

Question: Which “T2 Binding (mean fluorescence intensity)” value does the source give for B10 here?
Answer: The value was 464 MFI.

Question: And the “fold increase” value?
Answer: Its value is 5.2 fold.

Question: Which results are given for B11?
Answer: T2 Binding (mean fluorescence intensity): 203 MFI; fold increase compared with the negative control (CAP-7 peptide): 2.3 fold
